Results from patent US6432645B1, “Beta subunits of Slo family potassium channels” (ICAgen Inc., priority 1999, dated 2002).
One block for each compound: values may come before it.

Assays:
Slo-1 [1] = target: T1, Slo-1 (Homo sapiens, UniProt Q12791); assay: Whole-cell voltage-clamp of membrane currents in HEK293 cells expressing Slo-1 alone; type: cell-based; set-up: expressed in transfected cells; host or cells: HEK293; settings: Slo-1 alone in HEK293 cells, 250 ms depolarizing steps from holding potential -80 mV; for inhibition (block) of membrane currents: CTX 100 nM
T1 sequence (Q12791 whole entry): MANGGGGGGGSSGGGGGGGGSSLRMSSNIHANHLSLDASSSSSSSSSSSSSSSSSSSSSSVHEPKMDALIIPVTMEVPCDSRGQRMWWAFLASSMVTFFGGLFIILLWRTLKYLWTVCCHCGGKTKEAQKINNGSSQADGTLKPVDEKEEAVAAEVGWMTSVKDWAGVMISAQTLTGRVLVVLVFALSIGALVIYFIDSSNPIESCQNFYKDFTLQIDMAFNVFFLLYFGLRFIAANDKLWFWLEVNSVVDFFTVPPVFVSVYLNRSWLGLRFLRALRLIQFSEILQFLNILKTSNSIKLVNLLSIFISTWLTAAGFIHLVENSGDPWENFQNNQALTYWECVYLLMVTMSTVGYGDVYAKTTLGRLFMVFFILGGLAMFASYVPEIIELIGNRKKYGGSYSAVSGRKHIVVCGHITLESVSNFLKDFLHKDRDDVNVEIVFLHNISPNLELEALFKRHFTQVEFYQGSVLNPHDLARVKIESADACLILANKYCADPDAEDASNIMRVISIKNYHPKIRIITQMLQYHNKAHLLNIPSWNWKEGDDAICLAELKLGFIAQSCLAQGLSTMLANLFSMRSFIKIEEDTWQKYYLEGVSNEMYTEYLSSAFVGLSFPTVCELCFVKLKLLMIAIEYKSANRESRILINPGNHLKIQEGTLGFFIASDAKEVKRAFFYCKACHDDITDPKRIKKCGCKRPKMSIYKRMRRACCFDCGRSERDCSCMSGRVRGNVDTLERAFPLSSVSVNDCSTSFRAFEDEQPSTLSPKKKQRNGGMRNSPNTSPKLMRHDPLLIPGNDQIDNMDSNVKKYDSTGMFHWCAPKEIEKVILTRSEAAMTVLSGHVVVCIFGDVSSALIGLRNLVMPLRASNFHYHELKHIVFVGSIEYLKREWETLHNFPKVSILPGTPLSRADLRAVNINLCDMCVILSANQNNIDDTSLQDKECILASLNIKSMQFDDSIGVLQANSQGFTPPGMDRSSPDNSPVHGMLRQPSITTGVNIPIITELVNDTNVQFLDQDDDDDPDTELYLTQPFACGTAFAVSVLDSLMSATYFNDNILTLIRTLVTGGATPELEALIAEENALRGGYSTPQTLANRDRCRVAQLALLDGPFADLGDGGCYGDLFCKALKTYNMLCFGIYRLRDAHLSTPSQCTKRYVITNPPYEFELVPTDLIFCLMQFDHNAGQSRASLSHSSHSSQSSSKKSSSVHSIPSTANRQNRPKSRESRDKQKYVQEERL
Experimental: (§1) FIGS. 6A-B. Slo-1/BKB3 forms BK type II-like charybdotoxin—(CTX) insensitive channels. Slo-1 (A) or Slo-1+BK beta 3 (B) were expressed in HEK293 cells and membrane currents measured using the whole-cell voltage-clamp technique. […]. In contrast, membrane currents in cells co-expressing Slo-1 and BK beta 3 were TEA (5 mM) sensitive but CTX (100 nM) insensitive (FIG. 6B). Similar recordings were made from 4 cells expressing Slo-1 alone and 6 cells co-expressing Slo-1/BKB3. Scale bars represent 1 nA and 200 ms.

Slo-1/BKB3 = target: T2, Slo-1/BKB3 (Homo sapiens, UniProt Q12791); assay: Whole-cell voltage-clamp of membrane currents in HEK293 cells co-expressing Slo-1 and BK beta 3; type: cell-based; settings: Slo-1 + BK beta 3 in HEK293 cells, 250 ms depolarizing steps from holding potential -80 mV; for sensitivity (block) of membrane currents: CTX 100 nM
T2 construct: expressed in transfected cells; host or cells: HEK293
T2 sequence (Q12791 whole entry): as above
T2 sequence (Q86W47 whole entry W137E partner): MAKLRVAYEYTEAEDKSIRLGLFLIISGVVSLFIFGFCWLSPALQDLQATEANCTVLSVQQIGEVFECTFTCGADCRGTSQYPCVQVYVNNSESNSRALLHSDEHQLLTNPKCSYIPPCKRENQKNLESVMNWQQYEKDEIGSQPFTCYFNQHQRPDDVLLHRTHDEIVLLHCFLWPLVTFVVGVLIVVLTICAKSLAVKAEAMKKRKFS
Experimental: as §1

Slo-1 [2] = target: T1, Slo-1; assay: cell-based or functional assay

Compound: CC[N+](CC)(CC)CC [TEA]
- inhibition of membrane currents (Slo-1 [1]; TEA 5 mM): strongly inhibited
- sensitivity of membrane currents (Slo-1/BKB3; TEA 5 mM): sensitive

- shift of the Slo-1 activation curve (V1/2 act), patch clamp, 50 uM free Ca2+ (Slo-1 [2]): 15 mV
Compound: human BK beta 3

Compound: charybdotoxin [CTX]
- inhibition (block) of membrane currents (Slo-1 [1]): strongly inhibited
- inhibition (block) of membrane currents (Slo-1 [1]; listed as charybdotoxin): almost completely blocked
- sensitivity (block) of membrane currents (Slo-1/BKB3): insensitive
- sensitivity (block) of membrane currents (Slo-1/BKB3; listed as charybdotoxin): virtually unblocked
